Laboratory results taken from patent US20250361326A1 (Hoffmann-La Roche, published 2025).

T1: VEGF (UniProt P15692-9 27-147)
T1 construct: also called VEGF121
T1 sequence (looked up): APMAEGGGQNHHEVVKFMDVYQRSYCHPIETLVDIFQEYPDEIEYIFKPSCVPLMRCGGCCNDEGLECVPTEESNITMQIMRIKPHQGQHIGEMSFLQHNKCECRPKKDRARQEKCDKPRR

B1: anti-bio/anti-fluos bispecific antibody (exchange reaction: bio MHCFcRP-knob-E357K row x fluos MHCFcRP-hole-K370E column) (bispecific antibody, human IgG1, kappa)
heavy 1: not shown
light 1: DIQMTQSPSSLSASVGDRVTITCRASGNIHNYLSWYQQKPGKVPKLLIYSAKTLADGVPSRFSGSGSGTDFTLTISSLQPEDVATYYCQHFWSSIYTFGQGTKLEIKRTVAAPSVFIFPPSDEQLKSGTASVVCLLNNFYPREAKVQWKVDNALQSGNSQESVTEQDSKDSTYSLSSTLTLSKADYEKHKVYACEVTHQGLSSPVTKSFNRGEC
heavy 2: not shown
light 2: DIVMTQTPLSLSVTPGQPASISCKSSQSLVHSNGNTYLRWYLQKPGQSPKVLIYKVSNRVSGVPDRFSGSGSGTDFTLKISRVEAEDVGVYYCSQSTHVPWTFGQGTKLEIKRTVAAPSVFIFPPSDEQLKSGTASVVCLLNNFYPREAKVQWKVDNALQSGNSQESVTEQDSKDSTYSLSSTLTLSKADYEKHKVYACEVTHQGLSSPVTKSFNRGEC
notes: Product of the 2/3-IgG exchange reaction, tested as reaction mix; human IgG1 knob-into-hole format; also called bio/fluos bsAb
B2: anti-dig/anti-PDGF bispecific antibody (exchange reaction: dig MHCFcRP-knob-E357K row x PDGF MHCFcRP-hole-K370E column) (bispecific antibody, human IgG1, not shown: small tags and cut ends)
heavy 1: QVQLVESGGGLVKPGGSLRLSCAASGFTFSDYAMSWIRQAPGKGLEWVSSINIGATYIYYADSVKGRFTISRDNAKNSLYLQMNSLRAEDTAVYYCARPGSPYEYDKAYYSMAYWGQGTTVTVSSASTKGPSVFPLAPSSKSTSGGTAALGCLVKDYFPEPVTVSWNSGALTSGVHTFPAVLQSSGLYSLSSVVTVPSSSLGTQTYICNVNHKPSNTKVDKKVEPKSC
light 1: not shown
heavy 2: EVQLVESGGGLVQPGGSLRLSCAASGFTFSSYWMSWVRQAPEKGLEWVSTISDGGGLTYYADSVKGRFTISRDNAKNSLYLQMNSLRAEDTAVYYCAESGGYTDWLFGYWGQGTLVTVSSASTKGPSVFPLAPSSKSTSGGTAALGCLVKDYFPEPVTVSWNSGALTSGVHTFPAVLQSSGLYSLSSVVTVPSSSLGTQTYICNVNHKPSNTKVDKKVEPKSC
light 2: not shown
notes: Product of the 2/3-IgG exchange reaction, tested as reaction mix; human IgG1 knob-into-hole format; also called dig/PDGF bsAb
B3: anti-PDGF/anti-bio bispecific antibody (exchange reaction: PDGF MHCFcRP-knob-E357K row x bio MHCFcRP-hole-K370E column) (bispecific antibody, human IgG1, not shown: small tags and cut ends)
heavy 1: B2 heavy 2
light 1: not shown
heavy 2: not shown
light 2: B1 light 1
notes: Product of the 2/3-IgG exchange reaction, tested as reaction mix; human IgG1 knob-into-hole format; also called PDGF/bio bsAb
B4: anti-PDGF/anti-dig bispecific antibody (exchange reaction: PDGF MHCFcRP-knob-E357K row x dig MHCFcRP-hole-K370E column) (bispecific antibody, human IgG1, not shown: small tags and cut ends)
heavy 1: B2 heavy 2
light 1: not shown
heavy 2: B2 heavy 1
light 2: not shown
notes: Product of the 2/3-IgG exchange reaction, tested as reaction mix; human IgG1 knob-into-hole format; also called PDGF/dig bsAb
B5: anti-bio/anti-dig bispecific antibody (exchange reaction: bio MHCFcRP-knob-E357K row x dig MHCFcRP-hole-K370E column) (bispecific antibody, human IgG1, not shown: small tags and cut ends)
heavy 1: not shown
light 1: B1 light 1
heavy 2: B2 heavy 1
light 2: not shown
notes: Product of the 2/3-IgG exchange reaction, tested as reaction mix; human IgG1 knob-into-hole format; also called bio/dig bsAb
B6: anti-bio/anti-PDGF bispecific antibody (exchange reaction: bio MHCFcRP-knob-E357K row x PDGF MHCFcRP-hole-K370E column) (bispecific antibody, human IgG1, not shown: small tags and cut ends)
heavy 1: not shown
light 1: B1 light 1
heavy 2: B2 heavy 2
light 2: not shown
notes: Product of the 2/3-IgG exchange reaction, tested as reaction mix; human IgG1 knob-into-hole format; also called bio/PDGF bsAb
B7: anti-fluos/anti-bio bispecific antibody (exchange reaction: fluos MHCFcRP-knob-E357K row x bio MHCFcRP-hole-K370E column) (bispecific antibody, human IgG1, kappa)
heavy 1: not shown
light 1: B1 light 2
heavy 2: not shown
light 2: B1 light 1
notes: Product of the 2/3-IgG exchange reaction, tested as reaction mix; human IgG1 knob-into-hole format; also called fluos/bio bsAb
B8: anti-fluos/anti-dig bispecific antibody (exchange reaction: fluos MHCFcRP-knob-E357K row x dig MHCFcRP-hole-K370E column) (bispecific antibody, human IgG1, not shown: small tags and cut ends)
heavy 1: not shown
light 1: B1 light 2
heavy 2: B2 heavy 1
light 2: not shown
notes: Product of the 2/3-IgG exchange reaction, tested as reaction mix; human IgG1 knob-into-hole format; also called fluos/dig bsAb
B9: anti-dig/anti-bio bispecific antibody (exchange reaction: dig MHCFcRP-knob-E357K row x bio MHCFcRP-hole-K370E column) (bispecific antibody, human IgG1, not shown: small tags and cut ends)
heavy 1: B2 heavy 1
light 1: not shown
heavy 2: not shown
light 2: B1 light 1
notes: Product of the 2/3-IgG exchange reaction, tested as reaction mix; human IgG1 knob-into-hole format; also called dig/bio bsAb
B10: anti-dig/anti-fluos bispecific antibody (exchange reaction: dig MHCFcRP-knob-E357K row x fluos MHCFcRP-hole-K370E column) (bispecific antibody, human IgG1, not shown: small tags and cut ends)
heavy 1: B2 heavy 1
light 1: not shown
heavy 2: not shown
light 2: B1 light 2
notes: Product of the 2/3-IgG exchange reaction, tested as reaction mix; human IgG1 knob-into-hole format; also called dig/fluos bsAb

Assays:
VEGF [1] = molecular target: T1, VEGF; test: bridging ELISA, VEGF coated, biocytinamid-Cy5 detection; binder has bio arm, no VEGF arm
VEGF [2] = molecular target: T1, VEGF; test: bridging ELISA of exchange reaction mix, 1.3 µM input; VEGF coated, digoxygenin-Cy5 detection; highest value = 100%; binder has neither arm
VEGF [3] = molecular target: T1, VEGF; test: bridging ELISA of exchange reaction mix, 1.3 µM input; VEGF coated, biocytinamid-Cy5 detection; highest value = 100%; binder has bio arm, no VEGF arm
VEGF [4] = molecular target: T1, VEGF; test: bridging ELISA, VEGF coated, digoxygenin-Cy5 detection; binder has dig and PDGF arms, no VEGF arm
VEGF [5] = molecular target: T1, VEGF; test: bridging ELISA of exchange reaction mix, 1.3 µM input; VEGF coated, biocytinamid-Cy5 detection; highest value = 100%; binder has neither arm
VEGF [6] = molecular target: T1, VEGF; test: bridging ELISA of exchange reaction mix, 1.3 µM input; VEGF coated, digoxygenin-Cy5 detection; highest value = 100%; binder has dig arm, no VEGF arm
VEGF [7] = molecular target: T1, VEGF; test: bridging ELISA, VEGF coated, biocytinamid-Cy5 detection; binder has bio and PDGF arms, no VEGF arm
VEGF [8] = molecular target: T1, VEGF; test: bridging ELISA, VEGF coated, biocytinamid-Cy5 or digoxygenin-Cy5 detection; binder has bio and dig arms, no VEGF arm
VEGF [9] = molecular target: T1, VEGF; test: bridging ELISA, VEGF coated, digoxygenin-Cy5 detection; binder has dig arm, no VEGF arm

Binder	relative signal intensity (VEGF [2]) [%]	relative signal intensity (VEGF [3]) [%]	relative signal intensity (VEGF [5]) [%]	relative signal intensity (VEGF [6]) [%]	also measured
B1	7.2	9			binding result (VEGF [1]): no binding (tested: 1.3 µM input molecule concentration)
B2			9.9	7	binding result (VEGF [4]): no binding (tested: 1.3 µM input molecule concentration)
B3	6	10.5			binding result (VEGF [7]): no binding (tested: 1.3 µM input molecule concentration)
B4			9.2	5.9	binding result (VEGF [4]): no binding (tested: 1.3 µM input molecule concentration)
B5		9.3		6.2	binding result (VEGF [8]): no binding (tested: 1.3 µM input molecule concentration)
B6	6.1	10.1			binding result (VEGF [7]): no binding (tested: 1.3 µM input molecule concentration)
B7	6.5	10.2			binding result (VEGF [1]): no binding (tested: 1.3 µM input molecule concentration)
B8			9.4	6.3	binding result (VEGF [9]): no binding (tested: 1.3 µM input molecule concentration)
B9		9		6.2	binding result (VEGF [8]): no binding (tested: 1.3 µM input molecule concentration)
B10			9.1	6.7	binding result (VEGF [9]): no binding (tested: 1.3 µM input molecule concentration)
